Data on 16 molecules can be found in patent US20050100540A1, “Platelet-activating factor acetylhydrolase” (priority 1993, published 2005).

Numbering of substitutions follows the chain as printed. In names and notes the source's numbering stands.

The experiment can be described thus: PAF-AH activity of amino acid substitution products expressed in E. coli. The class given is biochemical. As to conditions: for PAF-AH activity: point mutants expressed in E. coli. The text has this:
By site-directed mutagenesis and PCR, individual codons of the human PAF-AH coding sequence were modified to encode alanine residues and were expressed in E. coli. […] The distances between active site residues is similar for PAF-AH (Ser to Asp, 23 amino acids; Ser to His, 78 amino acids) and other lipases. […] Cysteines are often critical for the functional integrity of proteins because of their capacity to form disulfide bonds. The plasma PAF-AH enzyme contains five cysteines. To determine whether any of the five is critical for enzyme actvity, each cysteine was mutated individually to a serine and the resulting mutants were expressed in E. coli. As shown below in Table 8, a significant but not total loss of PAF-AH activity resulted from the conversion of either Cys229, r Cys291 to serine. Therefore, these cysteines appear to be necessary for full PAF-AH activity. Other point mutations had little or no effect on PAF-AH catalytic activity. In Table 8, “++++” represent wild type PAF-AH activity of about 40-60 U/ml/OD600, “+++” represents about 20-40 U/ml/OD600 activity, “++” represents about 10-20 U/ml/OD600 activity, “+” represents 1-10 U/ml/OD600 activity, and “−” indicates <1 U/ml/OD600 activity.
To test whether this mutation crippled the enzyme, an E. coli expression construct containing the mutation was generated by methods similar to that described in Example 10. […] This amino acid substitution presumably results in a structural modification which causes the observed deficiency of activity and lack of immunoreactivity with the PAF-AH antibodies of the invention.

B1: Wild type: Wild type human PAF-AH expressed in E. coli, reference of Table 8 (protein, UniProt Q13093 22-441, looked up)
Platelet-activating factor …: FDWQYINPVAHMKSSAWVNKIQVLMAAASFGQTKIPRGNGPYSVGCTDLMFDHTNKGTFLRLYYPSQDNDRLDTLWIPNKEYFWGLSKFLGTHWLMGNILRLLFGSMTTPANWNSPLRPGEKYPLVVFSHGLGAFRTLYSAIGIDLASHGFIVAAVEHRDRSASATYYFKDQSAAEIGDKSWLYLRTLKQEEETHIRNEQVRQRAKECSQALSLILDIDHGKPVKNALDLKFDMEQLKDSIDREKIAVIGHSFGGATVIQTLSEDQRFRCGIALDAWMFPLGDEVYSRIPQPLFFINSEYFQYPANIIKMKKCYSPDKERKMITIRGSVHQNFADFTFATGKIIGHMLKLKGDIDSNVAIDLSNKASLAFLQKHLGLHKDFDQWDCLIEGDDENLIPGTNINTTNQHIMLQNSSGIEKYN
Take B1: the PAF-AH activity entry is on record as “++++ (“++++” represent wild type PAF-AH activity of about 40-60 U/ml/OD600)”.

B2: V279F: PAF-AH with phenylalanine for valine at position 279, mutation of PAF-AH deficient individuals, expressed in E. coli (protein)
chain: MVPPKLHVLFCLCGCLAVVYPFDWQYINPVAHMKSSAWVNKIQVLMAAASFGQTKIPRGNGPYSVGCTDLMFDHTNKGTFLRLYYPSQDNDRLDTLWIPNKEYFWGLSKFLGTHWLMGNILRLLFGSMTTPANWNSPLRPGEKYPLVVFSHGLGAFRTLYSAIGIDLASHGFIVAAVEHRDRSASATYYFKDQSAAEIGDKSWLYLRTLKQEEETHIRNEQVRQRAKECSQALSLILDIDHGKPVKNALDLKFDMEQLKDSIDREKIAVIGHSFGGATFIQTLSEDQRFRCGIALDAWMFPLGDEVYSRIPQPLFFINSEYFQYPANIIKMKKCYSPDKERKMITIRGSVHQNFADFTFATGKIIGHMLKLKGDIDSNVAIDLSNKASLAFLQKHLGLHKDFDQWDCLIEGDDENLIPGTNINTTNQHIMLQNSSGIEKYN
As for B2, the “PAF-AH activity of E. coli expression construct containing the mutation” value (control construct lacking the mutation fully active) was “no PAF-AH activity”.

B3: C291S: PAF-AH cysteine to serine mutant expressed in E. coli (protein)
chain: B2 chain with F279V, C291S
For the molecule B3, the PAF-AH activity entry was “+ (“+” represents 1-10 U/ml/OD600 activity)”.

B4: D338A: PAF-AH amino acid substitution product expressed in E. coli (protein)
chain: B2 chain with F279V, D338A
In the case of B4, the PAF-AH activity entry is given as “++++ (“++++” represent wild type PAF-AH activity of about 40-60 U/ml/OD600)”.

B5: D296A: PAF-AH amino acid substitution product expressed in E. coli (protein)
chain: B2 chain with F279V, D296A
With B5, the PAF-AH activity entry is “− (“−” indicates <1 U/ml/OD600 activity)”.

B6: D286A: PAF-AH amino acid substitution product expressed in E. coli (protein)
chain: B2 chain with F279V, D286A
For B6, the PAF-AH activity result is “− (“−” indicates <1 U/ml/OD600 activity)”.

B7: D304A: PAF-AH amino acid substitution product expressed in E. coli (protein)
chain: B2 chain with F279V, D304A
As for B7, the PAF-AH activity entry is listed as “++++ (“++++” represent wild type PAF-AH activity of about 40-60 U/ml/OD600)”.

B8: D286N: PAF-AH amino acid substitution product expressed in E. coli (protein)
chain: B2 chain with F279V, D286N
With B8, the PAF-AH activity entry is “++ (“++” represents about 10-20 U/ml/OD600 activity)”.

B9: S108A: PAF-AH amino acid substitution product expressed in E. coli (protein)
chain: B2 chain with S108A, F279V
On to B9, for which the PAF-AH activity entry is on record as “++++ (“++++” represent wild type PAF-AH activity of about 40-60 U/ml/OD600)”.

B10: S273A: PAF-AH amino acid substitution product expressed in E. coli (protein)
chain: B2 chain with S273A, F279V
Consider B10, for which the PAF-AH activity result is “− (“−” indicates <1 U/ml/OD600 activity)”.

B11: C229S: PAF-AH cysteine to serine mutant expressed in E. coli (protein)
chain: B2 chain with C229S, F279V
Turning to B11, the PAF-AH activity entry is given as “+ (“+” represents 1-10 U/ml/OD600 activity)”.

B12: H395A, H399A: PAF-AH double amino acid substitution product expressed in E. coli (protein)
chain: B2 chain with F279V, H395A, H399A
As for B12, the PAF-AH activity entry is on record as “++++ (“++++” represent wild type PAF-AH activity of about 40-60 U/ml/OD600)”.

B13: C334S: PAF-AH cysteine to serine mutant expressed in E. coli (protein)
chain: B2 chain with F279V, C334S
For B13, the PAF-AH activity result was “++++ (“++++” represent wild type PAF-AH activity of about 40-60 U/ml/OD600)”.

B14: C407S: PAF-AH cysteine to serine mutant expressed in E. coli (protein)
chain: B2 chain with F279V, C407S
With B14, the PAF-AH activity entry was “+++ (“+++” represents about 20-40 U/ml/OD600 activity)”.

B15: C67S: PAF-AH cysteine to serine mutant expressed in E. coli (protein)
chain: B2 chain with C67S, F279V
Turning to B15, the PAF-AH activity result was “+++ (“+++” represents about 20-40 U/ml/OD600 activity)”.

B16: H351A: PAF-AH amino acid substitution product expressed in E. coli (protein)
chain: B2 chain with F279V, H351A
For B16, the PAF-AH activity entry is “− (“−” indicates <1 U/ml/OD600 activity)”.
